Experimental data published in patent publication US5811533.

These sequences were tested on PDGF (assay: filter). Conditions: specificity.

Sequence | Kd [nM]
GGCCGGUAGUCGCAUGGCCCAUCGCGCCCGG [ligand 100t] | 600
GGAAGCUUGAUGGGUGACACACGUCAUGCCGAGCU [ligand 44t] | 600

What follows are sequences tested on T1, VEGF165 (recombinant human vascular endothelial growth factor, 165 aa form) (Homo sapiens), P15692-4 (assay: filter). Conditions: not given.
T1 sequence: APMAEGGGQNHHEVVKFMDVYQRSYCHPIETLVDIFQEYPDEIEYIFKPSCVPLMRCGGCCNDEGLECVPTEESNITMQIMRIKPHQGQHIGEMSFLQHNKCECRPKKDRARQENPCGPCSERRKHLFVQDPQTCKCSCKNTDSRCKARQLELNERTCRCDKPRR

Sequence | Kd [nM]
CTACCTACGATCTGACTAGCTGCNNGCGGGCGGTTCTCCGGATGGGACCATAAGGCTTTAGCTTAGCTTACTCTCATGTAGTTCCT [ssDNA b54] | 2.5
CTACCTACGATCTGACTAGCCCACTGCATAGAGATACTGGATTCGACNNNCCAAAGTTTCGGTGCTTAGCTTACTCTCATGTAGTTCCT [ssDNA b96] | 1.5
TGGACTAGAGGNCAGCAAACGATCCTTGGTTCGCGTCC [32t] | 17
CTACCTACGATCTGACTAGCACAAGGGGTCCTGNNGAATGGGGGAATACGCTAGCCGAAGCTTACTCTCATGTAGTTCCT [ssDNA b55] | 15
CTACCTACGATCTGACTAGCATCCTTCCGAATGGGGGAAATGGCGNCCCAGCTTACTCTCATGTAGTTCCT [ssDNA b89] | 2
CTACCTACGATCTGACTAGCCCACTGCAGAGAGTCAACCTTACGANGCCAAGGTTGCGGTGCTTAGCTTACTCTCATGTAGTTCCT [ssDNA b97] | > 1
CTACCTACGATCTGACTAGCCCACTGCATAGAGAGTCGCAAGACACGGTGCTTTATTCNCCGCTTAGCTTACTCTCATGTAGTTCCT [ssDNA b62] | 2.9
ATCCGCCTGATTAGCGATACTGGTGTGAACCAGACCTACNGGAACGTTATCGCTTGTGACTTGAGCAAAATCACCTGCAGGGG [ssDNA 44] | 0.4
ATCCGCCTGATTAGCGATACTGGTGGACTAGAGGNCAGCAAACGATCCTTGGTTCGCGTCCACTTGAGCAAAATCACCTGCAGGGG [ssDNA 32] | 2

Same assay, conditions: 2'-NH2 pyrimidines; random pool

Sequence | Kd [nM]
GGGAGACAAGAAUAACGCUCAANNNNNNNNNNNNNNNNNNNNNNNNNNNNNNUUCGACAGGAGGCUCACAACAGGC [Random RNA A (30N8)] | 83
GGGAGGACGAUGCGGNNNNNNNNNNNNNNNNNNNNNNNNNNNNNNNNNNNNNNNNNNNNNNNNNNCAGACGACUCGCCCGA [Random RNA B (50N7)] | 240

Same assay, conditions: clone listed in families 1 and 2

Sequence | Kd [nM]
CTACCTACGATCTGACTAGCACGCAAGAGAGGTCNCCGAATGGCAGTCTCAGCCGCTAACAGCTTACTCTCATGTAGTTCCT [ssDNA b91] | 3.9

Same assay, conditions: random pool

Sequence | Kd [nM]
ATCCGCCTGATTAGCGATACTNNNNNNNNNNNNNNNNNNNNNNNNNNNNNNNNNNNNNNNNACTTGAGCAAAATCACCTGCAGGGG [starting random ssDNA pool] | 200
GGGAGCUCAGAAUAAACGCUCAANNNNNNNNNNNNNNNNNNNNNNNNNNNNNNUUCGACAUGAGGCCCGGAUCCGGC [random RNA pool (30N)] | 200
